Results reported in the supplement of paper PMC9112550, “Optimization of the antimicrobial peptide Bac7 by deep mutational scanning” (BMC Biology, 2022).
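Also: peptides expressed intracellularly from a pBAD plasmid library in pooled LB shake-flask culture, induced with 0.3% L-arabinose, DNA abundance read by NGS, three biological replicates, DESeq2 with apeglm shrinkage.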

The sequences below were run on Escherichia coli TOP10 (assay: shrunken log2 fold change of peptide-encoding DNA abundance (4.5 h post-induction vs induction); higher = less antimicrobial activity (less host growth inhibition)). Settings: time post-induction: 4.5 h; library: site-saturation at positions 5, 18, 19, 20.
RRIRKRPPRLPRPRPRPYSLPRP was tested, and the “shrunken log2 fold change” value was -0.0434. For RRIRSRPPRLPRPRPRPFLIPRP, the “shrunken log2 fold change” value was -0.383. In the case of RRIRCRPPRLPRPRPRPFGSPRP, the “shrunken log2 fold change” value is reported as -0.078. RRIRTRPPRLPRPRPRPGMAPRP was tested, and the “shrunken log2 fold change” value was -0.0805. For RRIRLRPPRLPRPRPRPVDIPRP, the “shrunken log2 fold change” value was -0.183. For RRIRERPPRLPRPRPRPLLGPRP, the “shrunken log2 fold change” value was -0.144. In the case of RRIRTRPPRLPRPRPRPNNCPRP, the “shrunken log2 fold change” value is reported as -0.0675. With RRIRRRPPRLPRPRPRPPNCPRP the “shrunken log2 fold change” value was 0.15. With RRIRQRPPRLPRPRPRPMMIPRP the “shrunken log2 fold change” value was -0.0862. RRIRIRPPRLPRPRPRPFQKPRP was tested, and the “shrunken log2 fold change” value was -0.0135. With RRIRWRPPRLPRPRPRPPGMPRP the “shrunken log2 fold change” value was 0.759. RRIRRRPPRLPRPRPRPACNPRP was tested, and the “shrunken log2 fold change” value was 0.654. In the case of RRIRCRPPRLPRPRPRPQFMPRP, the “shrunken log2 fold change” value is reported as -0.59. In the case of RRIRVRPPRLPRPRPRPETNPRP, the “shrunken log2 fold change” value is reported as 0.0778. RRIRMRPPRLPRPRPRPYNNPRP was tested, and the “shrunken log2 fold change” value was -0.4. In the case of RRIRFRPPRLPRPRPRPPDNPRP, the “shrunken log2 fold change” value is reported as -0.115. With RRIRQRPPRLPRPRPRPHNHPRP the “shrunken log2 fold change” value was -0.811. RRIRRRPPRLPRPRPRPRIIPRP was tested, and the “shrunken log2 fold change” value was 0.0728. With RRIRMRPPRLPRPRPRPSPCPRP the “shrunken log2 fold change” value was 0.18. With RRIRERPPRLPRPRPRPWINPRP the “shrunken log2 fold change” value was -0.637. For RRIRKRPPRLPRPRPRPQSWPRP, the “shrunken log2 fold change” value was 0.451. RRIRMRPPRLPRPRPRPINMPRP was tested, and the “shrunken log2 fold change” value was -0.0607. In the case of RRIRLRPPRLPRPRPRPRNTPRP, the “shrunken log2 fold change” value is reported as -0.0367. For RRIRYRPPRLPRPRPRPHCWPRP, the “shrunken log2 fold change” value was -0.702. RRIRCRPPRLPRPRPRPRVDPRP was tested, and the “shrunken log2 fold change” value was 0.113. With RRIRKRPPRLPRPRPRPDTYPRP the “shrunken log2 fold change” value was -0.0205. For RRIRNRPPRLPRPRPRPKQGPRP, the “shrunken log2 fold change” value was 0.0554. In the case of RRIRTRPPRLPRPRPRPPGRPRP, the “shrunken log2 fold change” value is reported as 0.586. RRIRERPPRLPRPRPRPINIPRP was tested, and the “shrunken log2 fold change” value was -0.973. In the case of RRIRQRPPRLPRPRPRPHWMPRP, the “shrunken log2 fold change” value is reported as -0.0751. In the case of RRIRMRPPRLPRPRPRPRDRPRP, the “shrunken log2 fold change” value is reported as 1.11. For RRIRFRPPRLPRPRPRPTMRPRP, the “shrunken log2 fold change” value was 0.605. RRIRSRPPRLPRPRPRPQLYPRP was tested, and the “shrunken log2 fold change” value was -0.071. RRIRKRPPRLPRPRPRPHHVPRP was tested, and the “shrunken log2 fold change” value was -0.348. With RRIRHRPPRLPRPRPRPFIGPRP the “shrunken log2 fold change” value was -0.231. With RRIRFRPPRLPRPRPRPIFNPRP the “shrunken log2 fold change” value was -0.0984. With RRIRKRPPRLPRPRPRPFHQPRP the “shrunken log2 fold change” value was -0.0483. In the case of RRIRCRPPRLPRPRPRPGAGPRP, the “shrunken log2 fold change” value is reported as 0.364. With RRIRDRPPRLPRPRPRPYKTPRP the “shrunken log2 fold change” value was -0.0411. RRIRARPPRLPRPRPRPMSLPRP was tested, and the “shrunken log2 fold change” value was -0.229. RRIRRRPPRLPRPRPRPSSAPRP was tested, and the “shrunken log2 fold change” value was 0.421. RRIRFRPPRLPRPRPRPEGAPRP was tested, and the “shrunken log2 fold change” value was 1.05. In the case of RRIRLRPPRLPRPRPRPKEMPRP, the “shrunken log2 fold change” value is reported as 0.0765. For RRIRGRPPRLPRPRPRPFLGPRP, the “shrunken log2 fold change” value was 0.0188. For RRIRWRPPRLPRPRPRPVMAPRP, the “shrunken log2 fold change” value was 0.171. In the case of RRIRYRPPRLPRPRPRPQQEPRP, the “shrunken log2 fold change” value is reported as -0.0075. With RRIRKRPPRLPRPRPRPKWGPRP the “shrunken log2 fold change” value was 0.594. RRIRARPPRLPRPRPRPHAGPRP was tested, and the “shrunken log2 fold change” value was 0.122. For RRIRHRPPRLPRPRPRPHNHPRP, the “shrunken log2 fold change” value was -0.577. RRIRERPPRLPRPRPRPSDHPRP was tested, and the “shrunken log2 fold change” value was -0.133. For RRIRNRPPRLPRPRPRPDSRPRP, the “shrunken log2 fold change” value was -0.0141. In the case of RRIRDRPPRLPRPRPRPLFVPRP, the “shrunken log2 fold change” value is reported as -0.168. For RRIRWRPPRLPRPRPRPVIIPRP, the “shrunken log2 fold change” value was -0.219. For RRIRHRPPRLPRPRPRPNGPPRP, the “shrunken log2 fold change” value was -0.0992. With RRIRQRPPRLPRPRPRPEEGPRP the “shrunken log2 fold change” value was -0.0102. For RRIRNRPPRLPRPRPRPLDRPRP, the “shrunken log2 fold change” value was 0.0215. With RRIRCRPPRLPRPRPRPKWDPRP the “shrunken log2 fold change” value was 0.13. With RRIRQRPPRLPRPRPRPISQPRP the “shrunken log2 fold change” value was 0.0474. RRIRMRPPRLPRPRPRPPLKPRP was tested, and the “shrunken log2 fold change” value was 1.23. RRIRLRPPRLPRPRPRPFMYPRP was tested, and the “shrunken log2 fold change” value was -1.5. For RRIRVRPPRLPRPRPRPSICPRP, the “shrunken log2 fold change” value was -0.208. In the case of RRIRGRPPRLPRPRPRPKTYPRP, the “shrunken log2 fold change” value is reported as 0.23. In the case of RRIRFRPPRLPRPRPRPYLNPRP, the “shrunken log2 fold change” value is reported as -0.454. With RRIRIRPPRLPRPRPRPCMDPRP the “shrunken log2 fold change” value was -0.695. For RRIRCRPPRLPRPRPRPEEYPRP, the “shrunken log2 fold change” value was -0.065. In the case of RRIRNRPPRLPRPRPRPRSEPRP, the “shrunken log2 fold change” value is reported as 0.139. RRIRQRPPRLPRPRPRPAAFPRP was tested, and the “shrunken log2 fold change” value was 0.39. In the case of RRIRTRPPRLPRPRPRPKLCPRP, the “shrunken log2 fold change” value is reported as 0.0416. RRIRDRPPRLPRPRPRPSMLPRP was tested, and the “shrunken log2 fold change” value was -0.244. With RRIRRRPPRLPRPRPRPCFNPRP the “shrunken log2 fold change” value was -0.271. RRIRHRPPRLPRPRPRPWSSPRP was tested, and the “shrunken log2 fold change” value was -0.116. With RRIRHRPPRLPRPRPRPWHEPRP the “shrunken log2 fold change” value was -0.0659. In the case of RRIRNRPPRLPRPRPRPADYPRP, the “shrunken log2 fold change” value is reported as -0.24. For RRIRLRPPRLPRPRPRPVQSPRP, the “shrunken log2 fold change” value was -0.031. RRIRARPPRLPRPRPRPQAVPRP was tested, and the “shrunken log2 fold change” value was 0.0772.
